Data from publication PMC11034791.

Biological target: Neuropeptide Y (NPY) (UniProt P01303 29-64)
Experiment: electrochemical impedance spectroscopy

B1: NPY aptamer (80-base ssDNA) (ssDNA)
DNA: AGCAGCACAGAGGTCAGATGCAAACCACAGCCTGAGTGGTTAGCGTATGTCATTTACGGACCTATGCGTGCTACCGTGAA
modifications: 5' disulfide C6 (reduced to thiol), immobilized on Au
B1: binds.
